Measured values reported in patent publication US5693758A, “Immunoglobulin E competitor” (501 Research Corporation Limited, priority 1987, dated 1997).

How the values were obtained:
[1] = test system: Fc receptors of mast cells; conditions: cited from earlier work; for blocking activity: reported by Bennich
[2] = test system: FcER2 positive RPMI 8866 B cells; assay: Indirect immunofluorescence binding of rE peptides to RPMI 8866 B cells (FACScan); set-up: species or system human; conditions: for % positive cells: RPMI 8866 B cells, indirect immunofluorescence, 0.1-200 μg/ml ligand, 40 min 4° C., mean ±S.D. of 9 experiments; for binding to FcER2 positive RPMI 8866 B cells (in words): further indirect immunofluorescence studies
Method: RPMl 8866 cells were incubated with different concentrations of rE peptides and indirect immuno-fluorescence was performed.
For indirect immunofluorescence the results of which are summarised in Table VII, 0.5×10^6 RPMI 8866 cells (>99% FcER2 positive) in staining buffer (RPMI 1640 - 2.5% fetal bovine serum, containing 0.01% azide) were incubated with various concentrations (0.1-200 μg/ml) of purified rE fragments or native IgE(PS) for 40 minutes at 4° C. After washing, the cells were incubated for 30 minutes at 4° C. with the appropriate fluorescein isothiocyanate (FITC)-conjugated anti-Fc mAB or with an affinity-purified goat anti-human IgE antibody (10 μg/ml). After extensive washing, the percentage of cells binding IgE or the rE fragments was evaluated by a FACScan (Becton Dickinson, Mountain View, Calif.).

Molecule | blocking activity [1] | specific activity ([1]; reported) | % positive cells [2] [%] | binding to FcER2 positive RPMI 8866 B cells (in words) [2]
Asp-Ser-Asn-Pro-Arg (DSNPR; printed: Asp-Ser-Asn-Pro-Arg) | neither of the peptides Asp-Ser-Asp-Pro-Arg nor Asp-Ser-Asn-Pro-Arg has any blocking activity | – | – | –
Asp-Ser-Asp-Pro-Arg (DSDPR; printed: Asp-Ser-Asp-Pro-Arg) [HEPP, Human Immunoglobulin E Polypeptide, pentapeptide from IgE heavy chain 330 to 334] | neither of the peptides Asp-Ser-Asp-Pro-Arg nor Asp-Ser-Asn-Pro-Arg has any blocking activity | low | – | –
rE2: recombinant IgE peptide Asp 218-Val 336 (CH2) (protein, UniProt P01854 218-336, looked up, fragment) SAYLSRPSPFDLFIRKSPTITCLVVDLAPSKGTVNLTWSRASGKPVNHSTRKEEKQRNGTLTVTSTLPVGTRDWIEGETYQCRVTHPHLPRALMRSTTKTSGPRAAPEVYAFATPEWPG | – | – | 2 ± 1 | no detectable binding
rE2'-3': recombinant IgE peptide Gln 301-Arg 376 (protein, UniProt P01854 301-376, looked up, fragment) VTHPHLPRALMRSTTKTSGPRAAPEVYAFATPEWPGSRDKRTLACLIQNFMPEDISVQWLHNEVQLPDARHSTTQP | – | – | 2 ± 1 | no detectable binding
rE2-3: recombinant IgE peptide Asp 218-Pro 439 (CH2 and CH3) (protein, UniProt P01854 218-439, looked up, fragment) SAYLSRPSPFDLFIRKSPTITCLVVDLAPSKGTVNLTWSRASGKPVNHSTRKEEKQRNGTLTVTSTLPVGTRDWIEGETYQCRVTHPHLPRALMRSTTKTSGPRAAPEVYAFATPEWPGSRDKRTLACLIQNFMPEDISVQWLHNEVQLPDARHSTTQPRKTKGSGFFVFSRLEVTRAEWEQKDEFICRAVHEAASPSQTVQRAVSVNPGLAGGSAQSQRAP | – | – | 3 ± 1 | no detectable binding
